Experimental data from FireProtDB (doi:10.1021/bi00173a036).

Conditions: Bos taurus, Thermal, DSC, reversible: yes, whole UniProt chain shown

B1: Alpha-lactalbumin wild type, P00711 (protein)
chain: MMSFVSLLLVGILFHATQAEQLTKCEVFRELKDLKGYGGVSLPEWVCTTFHTSGYDTQAIVQNNDSTEYGLFQINNKIWCKDDQNPHSSNICNISCDKFLDDDLTDDIMCVKKILDKVGINYWLAHKALCSEKLDQWLCEKL
heat capacity change of unfolding (pH 3, 44.3 °C, acetate 10 mM): 1.3 kcal/mol/K
unfolding enthalpy (calorimetric) (pH 3, 44.3 °C, acetate 10 mM): 25.6 kcal/mol
heat capacity change of unfolding (pH 3.2, 29.8 °C, acetate 10 mM): 1.5 kcal/mol/K
unfolding enthalpy (calorimetric) (pH 3.2, 29.8 °C, acetate 10 mM): 21.4 kcal/mol
Tm (pH 3.2, acetate 10 mM): 29.8 °C
heat capacity change of unfolding (pH 3.2, acetate 10 mM): 0.92 kcal/mol/K
unfolding enthalpy (calorimetric) (pH 3.2, acetate 10 mM): 36.1 kcal/mol
unfolding enthalpy (van 't Hoff) (pH 3.2, acetate 10 mM): 43.5 kcal/mol
heat capacity change of unfolding (pH 3.5, 41 °C, acetate 10 mM): 1.6 kcal/mol/K
unfolding enthalpy (calorimetric) (pH 3.5, 41 °C, acetate 10 mM): 13.1 kcal/mol
Tm (pH 3.5, acetate 10 mM): 41 °C
heat capacity change of unfolding (pH 3.5, acetate 10 mM): 1.19 kcal/mol/K
unfolding enthalpy (calorimetric) (pH 3.5, acetate 10 mM): 47.8 kcal/mol
unfolding enthalpy (van 't Hoff) (pH 3.5, acetate 10 mM): 51.4 kcal/mol
heat capacity change of unfolding (pH 4.2, 57 °C, acetate 10 mM): 1.7 kcal/mol/K
unfolding enthalpy (calorimetric) (pH 4.2, 57 °C, acetate 10 mM): 2.72 kcal/mol
Tm (pH 4.2, acetate 10 mM): 57 °C
heat capacity change of unfolding (pH 4.2, acetate 10 mM): 1.61 kcal/mol/K
unfolding enthalpy (calorimetric) (pH 4.2, acetate 10 mM): 64.8 kcal/mol
unfolding enthalpy (van 't Hoff) (pH 4.2, acetate 10 mM): 59.8 kcal/mol
Tm (pH 8, Tris-HCl 5 mM): 64.3 °C
heat capacity change of unfolding (pH 8, Tris-HCl 5 mM): 1.7 kcal/mol/K
unfolding enthalpy (calorimetric) (pH 8, Tris-HCl 5 mM): 70.6 kcal/mol
unfolding enthalpy (van 't Hoff) (pH 8, Tris-HCl 5 mM): 69.1 kcal/mol
